First the molecules themselves.
B1: CPEB3 Ribozyme (parent)
chain: UAACAGGGGGCCACAGCAGAAGCGUUCACGUCGCAGCCCCUGUCAGAUUCUGGUGAAUCUGCGAAUUCUGCUGUAUAUCUC

Variants of B1 are the subject of this series. In words: self-cleavage, relative activity (ratio to wild type); higher = more cleavage; in vitro, sequencing. Summed up: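 Libraries of CPEB3 self-cleaving ribozyme mutants came from rounds of error-prone PCR and carried barcodes, which DNA sequencing matched to variants. In vitro transcription used T7 RNA polymerase at 37°C for 5 hours, with a further 15 min in DNase I before EDTA stopped the reaction; the ribozymes cleaved during both steps. The RNA was reverse transcribed with template switching and sequenced on Illumina. Relative activity is the cleaved/total read fraction of a variant divided by that of the unmutated ribozyme, averaged over three batches with at least 5 reads.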
Turning to G10C U80C, the self-cleavage worked out at 0.31. In the case of A3G U69G it was 0.76; in that of U41C C71G, 0.4; in that of C29G U60C, 0.11.

G9A A18G: the self-cleavage worked out at 0.21.

With G30C A65C, the self-cleavage was 0.11. Take U25C C39G: the self-cleavage turned out to be 0.15. U25C C50U: the self-cleavage came to 0.27.

Take G10C G33A: the self-cleavage was 0.16.

As to C37A A45G, the self-cleavage amounted to 0.26.

For G8U G10A, the self-cleavage came out at 0.39.

Consider U72C C79U, for which the self-cleavage was found to be 1.16. On to A18C U72A, for which the self-cleavage is 0.16.

For the variant C11U A18G, the self-cleavage came to 0.31. On to C29U U74C, for which the self-cleavage is 0.97.

Regarding A13U U49C, the self-cleavage is 0.31. Regarding C40U U78A, the self-cleavage was found to be 0.75. For U1G U72C, the self-cleavage was determined as 1.

For C29U, the self-cleavage was 0.51. As to C29G, the self-cleavage came to 0.3. In the case of U26A C34U it was 0.29; in that of G10U U60C, 0.38. As to C11A C81G, the self-cleavage was 0.39.

For the variant C23A C40G, the self-cleavage turned out to be 0.23.

Turning to C34U A35G, the self-cleavage amounted to 0.36.

Regarding U26G U74A, the self-cleavage was found to be 0.41. For C44U C79U, the self-cleavage turned out to be 0.16. In the case of G16U it was 0.42.

Take A5U A77U: the self-cleavage is 1.16. Take A13C U67C: the self-cleavage was 0.19. C59A U78C: the self-cleavage turned out to be 0.38. As for G30C U49C, the self-cleavage turned out to be 0.08. In the case of G19C A77G it was 0.24; in that of A15U U48G, 0.35. As to U69A A77G, the self-cleavage turned out to be 0.72. In the case of C27A C39A it was 0.2; in that of U74A A75G, 1.31; in that of C34A U78C, 0.32. In the case of C59A C68A it was 0.19; in that of U58A U69A, 0.23; in that of G8A U74C, 0.35.

For A21C U49G, the self-cleavage worked out at 0.11. For G19A U78A, the self-cleavage came to 0.47. For U25C C44U, the self-cleavage turned out to be 0.23. On to A21G U31G, for which the self-cleavage stood at 0.41. As for A28G U69C, the self-cleavage came to 0.25. Regarding G24C U51A, the self-cleavage worked out at 0.3. For U41C A65U, the self-cleavage came out at 0.48.

With A13G C79U, the self-cleavage is 1.14. In the case of U76A C79A, the self-cleavage amounted to 1.2. With U66C U76G, the self-cleavage worked out at 0.39. Consider U66C U76A, for which the self-cleavage worked out at 0.41. On to U26A U54A, for which the self-cleavage was found to be 0.82.

For U54C C62A, the self-cleavage is 0.13. As for C40U A77U, the self-cleavage was 0.81. As for G42U U66G, the self-cleavage amounted to 0.32. Consider A18U A21C, for which the self-cleavage was 0.2. Regarding G7U U66C, the self-cleavage was 0.17. With C32G U80A, the self-cleavage turned out to be 0.1. Take A20G A45C: the self-cleavage turned out to be 0.24. Consider C11A A35U, for which the self-cleavage is 0.1.

In the case of G6U C62G, the self-cleavage came out at 0.25. In the case of A15G U48G it was 0.72; in that of A75G U78G, 0.62; in that of C17U G53C, 0.66. Take C11G A35C: the self-cleavage amounted to 0.33. For G33U C38A, the self-cleavage is 0.2. For the variant A3C A45U, the self-cleavage worked out at 0.89. In the case of G19A A56G it was 0.2; in that of G7A G10A, 0.24.

On to G22A C37A, for which the self-cleavage came out at 0.09. Turning to A28G A35C, the self-cleavage was determined as 0.53. As for U48C A77U, the self-cleavage amounted to 0.65. In the case of U60A G73A it was 1.16; in that of C29U A56U, 0.16; in that of G10A A15U, 0.2.

For the variant A13U U54G, the self-cleavage was 1.01.

With C29U A57U, the self-cleavage was determined as 0.2. Consider C50U U54G, for which the self-cleavage turned out to be 0.74. As to C40U A47U, the self-cleavage is 0.32. In the case of U49A C59A, the self-cleavage was 0.34. In the case of A13G C71U, the self-cleavage was determined as 0.39. As for G9C A45C, the self-cleavage is 0.25. With A21G U76A, the self-cleavage is 0.55. As for A28G G53A, the self-cleavage was 0.78. Turning to A3U A28C, the self-cleavage worked out at 0.91. Regarding U25A A45C, the self-cleavage was determined as 0.6. With C23G U26A, the self-cleavage is 0.1. With A35G U67G, the self-cleavage was found to be 1.11.

Take C11A U25C: the self-cleavage worked out at 0.25. For A5U U51C, the self-cleavage is 1.13. Take A5U U51A: the self-cleavage was found to be 0.96. As to A2U U51G, the self-cleavage was 1.17. Consider A20U C40G, for which the self-cleavage came to 0.27. With U26A A75U, the self-cleavage amounted to 0.9.

As for A20C A45G, the self-cleavage was 0.33. Consider A3U A47G, for which the self-cleavage worked out at 1.17.

Take C44A C68G: the self-cleavage is 0.12. Regarding A28U U31G, the self-cleavage was 0.31.

Regarding A15U G19U, the self-cleavage came to 0.23. On to U43A U49C, for which the self-cleavage is 0.53. As to A3G U66A, the self-cleavage worked out at 0.64. For the variant G8C C32U, the self-cleavage worked out at 0.2. As to U1C U54A, the self-cleavage stood at 1.03. In the case of U1C U54G, the self-cleavage came to 0.67. As to U51A A65G, the self-cleavage was found to be 0.48. As to C37U U51C, the self-cleavage came out at 0.67. As for U60A U67C, the self-cleavage stood at 0.37. A3C A20G: the self-cleavage stood at 1.05. For the variant A2G G53U, the self-cleavage turned out to be 0.72. In the case of G36A A75U it was 0.36; in that of G61A U67G, 0.25; in that of A21U U66A, 1.12. Take U1G A2G: the self-cleavage came to 0.95. In the case of A35U C79U it was 0.64; in that of A3G U49C, 0.49. Turning to C59U U60C, the self-cleavage turned out to be 0.34. As to C4U A20C, the self-cleavage was determined as 0.21. Take U78C C81A: the self-cleavage is 1.21.

In the case of G8A A77C, the self-cleavage was determined as 0.09. Regarding A18G C29A, the self-cleavage was 0.26. For the variant C32A G52A, the self-cleavage came out at 0.29. In the case of A3U U48A it was 0.56.

For the variant G52A U60A, the self-cleavage is 0.4.

As to U31C C81U, the self-cleavage was found to be 1.14. Regarding A5C U67G, the self-cleavage is 0.27.

For U26C C37U, the self-cleavage came to 0.32. In the case of U49A U72G, the self-cleavage is 0.4. For the variant A5G U41A, the self-cleavage stood at 0.32. Consider U48C A75U, for which the self-cleavage is 0.71. Consider A5G U31G, for which the self-cleavage is 0.47.

Take C40U U67C: the self-cleavage came to 0.23. Turning to C17U U26C, the self-cleavage is 0.29. In the case of G8A C27U it was 0.08; in that of C12G U43C, 0.38. In the case of G16C A64U it was 0.28; in that of U31C A47C, 0.31. For the variant A21U C40U, the self-cleavage is 0.15. For the variant G22U U66C, the self-cleavage came to 0.52. Take A13C C68U: the self-cleavage is 1.07.

As for G9U U72C, the self-cleavage worked out at 0.26.

For the variant G33C U54C, the self-cleavage turned out to be 0.13. In the case of A5G C39A it was 0.39; in that of U72A C81A, 1.26; in that of A28U A56U, 0.57. In the case of A5G U76C it was 0.76; in that of A35G A65C, 0.67. Take A20U G46U: the self-cleavage was determined as 0.18. U43A U54C: the self-cleavage came to 1.19.

As for C11G U78C, the self-cleavage was 0.43. For U49C G55U, the self-cleavage came to 0.24. Regarding C29A C62U, the self-cleavage was 0.15. Take A28G U48C: the self-cleavage is 0.29. On to G7U U78A, for which the self-cleavage worked out at 0.48. As for G70A U76A, the self-cleavage worked out at 0.8.

With C11U U72C, the self-cleavage was found to be 0.64. As to C11U U72A, the self-cleavage came out at 0.42. As for C23U U60C, the self-cleavage turned out to be 0.15. Turning to C27U U78A, the self-cleavage worked out at 0.16. For U1A C12A, the self-cleavage was found to be 1.14. C4A U60A: the self-cleavage came out at 0.89. In the case of G6A C23U it was 0.12; in that of A18G C40A, 0.14. With A3G U60C, the self-cleavage was determined as 0.52. In the case of A56U U67G it was 0.16. In the case of A5U G33C, the self-cleavage is 0.16.

For the variant A56U C71U, the self-cleavage is 0.46.

The values above are taken from the RNAGym collection of RNA variant scans (doi:10.1093/nar/gkz1192).
